The values below come from article PMC5665613.

This experiment concerns the target Ub-aminomethylcoumarin (Ub-AMC) (UniProt P0CG47).

Sequence of BAP1N (1-240), wild-type catalytic domain of BAP1 (Q92560 1-240): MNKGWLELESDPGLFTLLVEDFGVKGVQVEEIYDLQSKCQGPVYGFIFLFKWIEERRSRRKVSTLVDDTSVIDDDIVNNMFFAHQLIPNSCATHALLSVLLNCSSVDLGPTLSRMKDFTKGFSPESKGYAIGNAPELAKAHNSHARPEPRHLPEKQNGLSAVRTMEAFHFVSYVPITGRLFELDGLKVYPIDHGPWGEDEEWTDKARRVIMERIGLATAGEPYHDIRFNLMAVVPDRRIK

For “BAP1N (1-240), wild-type catalytic domain of BAP1 (from UniProt Q92560 1-240) (domain or fragment)”, the Km of Ub-AMC hydrolysis by BAP1N (250 pM enzyme, 100 nM-7.5 µM Ub-AMC, 25°C, double-reciprocal plot) was found to be 2.9 µM.
